Measurements published in patent US20060045881A1, “Anti-cancer vaccines” (Board of Regents, The University of Texas System, priority 2004, published 2006).

Biological target: HLA-A2.1 heavy chain with I125-labeled beta2-microglobulin (heterotrimer complex assay) (human)
Assay: dissociation of I125-labeled beta2-microglobulin from heavy chain/peptide/beta2m complex, HPLC gel filtration

For “HTLV-1 Tax peptide (aa 11-19) (from UniProt P03409 11-19) (peptide; other documents disagree on this pair)”, the T1/2 (binding half-life) was 133 h.
